The record followed here is the supplement of paper PMC10567573.

To fix the notation:
B1: PBXIP1 (parent)
chain: LPVETLGPASRMDPESERALQAPH
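Further: lentivirally expressed fusions sorted by FACS into six bins by GFP to DsRed ratio, PSI derived from sequencing read proportions per bin multiplied by bin number.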

In the series the parent is B1. As to the kind of experiment: protein stability index of a GFP-peptide fusion (GPS, HEK-293T) (PSI 1-6); higher = more stable. Conditions: c terminus: a fixed tail appended.
With LPVETLGPASRMDPEAERALQAPH, the protein stability index turned out to be 4.16.
The same measure for LPVETLGPASRMDPECERALQAPH: 4.49; for LPVETLGPASRMDPENERALQAPH: 4.54.
Regarding LPVETLGPASRMDPEQERALQAPH, the protein stability index came out at 4.53.
The same measure for LPVETLPPASRMDPESERALQAPH: 4.61.
The same measure for LPVETLKPASRMDPESERALQAPH: 5.55; for LPVETLAPASRMDPESERALQAPH: 5.51; for LPVETLTPASRMDPESERALQAPH: 5.37.
The figure for LPVETLDPASRMDPESERALQAPH is 5.29; for LPVETLYPASRMDPESERALQAPH it is 4.63; for LPVETLVPASRMDPESERALQAPH it is 4.95.
Regarding LPVETLMPASRMDPESERALQAPH, the protein stability index came to 4.03.
Consider LPVETLIPASRMDPESERALQAPH, for which the protein stability index came to 4.76.
The figure for LPVETLGPASRMDPESERALMAPH is 4.05; for LPVETLGPASRMDPESERALKAPH it is 4.28.
In the case of LPVETLGPASRMDPESERALYAPH, the protein stability index amounted to 3.67.
Regarding LPVETLGPASRMDPESERALRAPH, the protein stability index stood at 4.44.
The same measure for LPVETLGPASRMDPESERALHAPH: 3.92; for LPVETLGPASRMDPESERALDAPH: 4.
The same measure for LPVETLGPASRMDPESERALAAPH: 3.93; for LPVETLGRASRMDPESERALQAPH: 4.73; for LPVETLGAASRMDPESERALQAPH: 5.03.
With LPVETLGIASRMDPESERALQAPH, the protein stability index amounted to 4.89.
The same measure for LPVETLGWASRMDPESERALQAPH: 4.01; for LPVETLGCASRMDPESERALQAPH: 5.37.
The same measure for LPVETLGSASRMDPESERALQAPH: 4.64; for LPVETLGNASRMDPESERALQAPH: 5.28; for LPVETLGPASRMEPESERALQAPH: 4.66.
As to LPVETLGPASRMTPESERALQAPH, the protein stability index is 4.28.
Consider LPVETLGPASRMFPESERALQAPH, for which the protein stability index amounted to 4.48.
The same measure for LPVETLGPASRMSPESERALQAPH: 3.88; for LPVETLGPASRMWPESERALQAPH: 3.71; for LPVETLGPASRMIPESERALQAPH: 4.61.
The same measure for LPVETLGPASRMRPESERALQAPH: 2.62; for LPVETLGPASRMDPESERALQHPH: 4.76; for LPVETLGPASRMDPESERALQMPH: 3.68.
The figure for LPVETQGPASRMDPESERALQAPH is 5.78.
Take LPVETVGPASRMDPESERALQAPH: the protein stability index stood at 4.45.
The figure for LPVETDGPASRMDPESERALQAPH is 5.48.
On to LPVETGGPASRMDPESERALQAPH, for which the protein stability index was 4.71.
Take LPVETCGPASRMDPESERALQAPH: the protein stability index stood at 4.55.
The figure for LPVETLGPAFRMDPESERALQAPH is 3.75.
LPVETLGPAHRMDPESERALQAPH: the protein stability index was determined as 4.2.
Turning to LPVETLGPAVRMDPESERALQAPH, the protein stability index turned out to be 4.44.
The same measure for LPVETLGPAERMDPESERALQAPH: 5.28.
The same measure for LPVETLGPALRMDPESERALQAPH: 3.53.
The figure for LSVETLGPASRMDPESERALQAPH is 4.4.
Regarding LEVETLGPASRMDPESERALQAPH, the protein stability index was determined as 3.99.
The figure for LAVETLGPASRMDPESERALQAPH is 4.24; for LMVETLGPASRMDPESERALQAPH it is 3.04; for LLVETLGPASRMDPESERALQAPH it is 3.37.
The figure for LGVETLGPASRMDPESERALQAPH is 4.98; for LPVETLGPASRMDPESERALQAYH it is 3.99; for LPVETLGPASRMDPESERALQAQH it is 4.06.
The figure for LPVETLGPASRMDPESERALQAEH is 4.8; for LPVETLGPASRMDPASERALQAPH it is 4.35; for LPVETLGPASRMDPVSERALQAPH it is 4.28.
In the case of LPVETLGPASRMDPPSERALQAPH, the protein stability index was found to be 3.92.
Regarding LPVETLGPASRMDPISERALQAPH, the protein stability index is 3.27.
The figure for LPVETLGPISRMDPESERALQAPH is 4.04; for LPVETLGPVSRMDPESERALQAPH it is 2.51.
The same measure for LPVETLGPRSRMDPESERALQAPH: 4.81; for LPVETLGPDSRMDPESERALQAPH: 4.54.
The same measure for LPVETLGPLSRMDPESERALQAPH: 3.18; for SPVETLGPASRMDPESERALQAPH: 5.25.
As for HPVETLGPASRMDPESERALQAPH, the protein stability index was 4.89.
The figure for QPVETLGPASRMDPESERALQAPH is 5.33; for EPVETLGPASRMDPESERALQAPH it is 4.68.
The figure for LPVETLGPASGMDPESERALQAPH is 3.95.
The figure for LPVETLGPASIMDPESERALQAPH is 2.99; for LPVETLGPASVMDPESERALQAPH it is 4.66.
In the case of LPVETLGPASPMDPESERALQAPH, the protein stability index was 3.98.
For the variant LPVETLGPASTMDPESERALQAPH, the protein stability index was found to be 4.2.
The figure for LPVETLGPASRMDLESERALQAPH is 3.91; for LPVETLGPASRMDWESERALQAPH it is 3.81.
The same measure for LPVETLGPASRMDPESERWLQAPH: 3.82; for LPVETLGPASRMDPESERFLQAPH: 4.05; for LPVETLGPASRMDPESERILQAPH: 4.
The figure for LPVETLGPASRMDPESERGLQAPH is 4.23; for LPVETLGPASRMDPESERNLQAPH it is 4.45; for LPVETLGPASRMDPESERRLQAPH it is 4.09.
As for LPVETLGPASRMDPESERHLQAPH, the protein stability index stood at 4.31.
The same measure for LPVETLGPASRMDPESERCLQAPH: 4.48; for LPVETLGPASRMDPESERTLQAPH: 4.63; for LPVETLGPASRMDPESERELQAPH: 4.68.
The figure for LPVETLGPASRMDPESERMLQAPH is 4.21.
The figure for LPVETLGPASRMDPESERYLQAPH is 3.64; for LPVVTLGPASRMDPESERALQAPH it is 4.62.
As for LPVFTLGPASRMDPESERALQAPH, the protein stability index was 3.94.
For the variant LPVCTLGPASRMDPESERALQAPH, the protein stability index was 4.99.
Turning to LPVLTLGPASRMDPESERALQAPH, the protein stability index turned out to be 3.49.
As for LPVATLGPASRMDPESERALQAPH, the protein stability index came to 5.07.
The figure for LPVQTLGPASRMDPESERALQAPH is 4.46; for LPVWTLGPASRMDPESERALQAPH it is 3.71.
